Data from article PMC7187929 (Biochimica et biophysica acta. Bioenergetics, 2017).
Values belong to the molecule of their own block, whether it stands above or below them.

Columns and labels:
[1] = target: HtSH (soluble NAD+-reducing [NiFe]-hydrogenase, HoxFUYH) (Hydrogenophilus thermoluteolus, UniProt A0A077L6X8); test: fluorometric FMN determination in purified protein; assay type: binding; details: bound cofactor content of purified enzyme
[2] = target: HoxFU module of HtSH (Hydrogenophilus thermoluteolus TH-1T) (Hydrogenophilus thermoluteolus TH-1T); test: co-purification
purified protein [3] = substrate: NC(=O)c1ccc[n+]([C@@H]2O[C@H](COP(=O)(O)OP(=O)(O)OC[C@H]3O[C@@H](n4cnc5c(N)ncnc54)[C@H](O)[C@@H]3O)[C@@H](O)[C@H]2O)c1; test: purified protein; details: H2 as electron donor, 50 °C, kcat at pH 6.5
purified protein [4] = substrate: NC(=O)C1=CN([C@@H]2O[C@H](COP(=O)(O)OP(=O)(O)OC[C@H]3O[C@@H](n4cnc5c(N)ncnc54)[C@H](O)[C@@H]3O)[C@@H](O)[C@H]2O)C=CC1; test: purified protein; details: benzyl viologen as electron acceptor, 50 °C

Sequence of HtSH (soluble NAD+-reducing [NiFe]-hydrogenase, HoxFUYH) (A0A077L885 1-242 partner, one chain of several): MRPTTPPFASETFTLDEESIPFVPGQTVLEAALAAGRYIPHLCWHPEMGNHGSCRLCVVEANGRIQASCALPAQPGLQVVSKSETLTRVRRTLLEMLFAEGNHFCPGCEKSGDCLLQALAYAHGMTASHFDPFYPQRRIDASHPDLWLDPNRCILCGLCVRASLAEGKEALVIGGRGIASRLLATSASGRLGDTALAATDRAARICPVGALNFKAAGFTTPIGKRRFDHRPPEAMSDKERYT
Sequence of HtSH (soluble NAD+-reducing [NiFe]-hydrogenase, HoxFUYH) (A0A077L7R5 1-189 partner, one chain of several): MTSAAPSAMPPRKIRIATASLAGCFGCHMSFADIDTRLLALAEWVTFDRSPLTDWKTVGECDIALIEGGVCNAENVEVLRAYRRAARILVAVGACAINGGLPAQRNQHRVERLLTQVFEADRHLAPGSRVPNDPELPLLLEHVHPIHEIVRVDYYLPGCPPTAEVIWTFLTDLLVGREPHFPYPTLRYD
Sequence of HtSH (soluble NAD+-reducing [NiFe]-hydrogenase, HoxFUYH) (A0A077LAI5 1-468 partner, one chain of several): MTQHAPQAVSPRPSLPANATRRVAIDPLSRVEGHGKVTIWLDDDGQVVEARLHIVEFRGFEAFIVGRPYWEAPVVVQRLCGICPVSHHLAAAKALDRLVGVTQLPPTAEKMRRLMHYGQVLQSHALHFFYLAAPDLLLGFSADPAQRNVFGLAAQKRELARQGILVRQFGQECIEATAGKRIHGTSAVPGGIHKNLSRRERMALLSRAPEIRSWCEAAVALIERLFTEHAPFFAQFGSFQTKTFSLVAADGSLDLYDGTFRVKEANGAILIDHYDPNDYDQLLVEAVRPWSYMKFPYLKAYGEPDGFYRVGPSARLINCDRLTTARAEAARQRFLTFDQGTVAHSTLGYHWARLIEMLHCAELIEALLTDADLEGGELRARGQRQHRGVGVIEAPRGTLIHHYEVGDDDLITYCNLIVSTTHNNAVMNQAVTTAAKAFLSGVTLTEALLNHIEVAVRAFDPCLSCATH

FMN per SH tetramer [1]: 1.07 mol/mol
Molecule: Cc1cc2nc3c(=O)[nH]c(=O)nc-3n(C[C@H](O)[C@H](O)[C@H](O)COP(=O)(O)O)c2cc1C [FMN]

stoichiometry N [2]: 1
Molecule: HoxYH module of HtSH (Hydrogenophilus thermoluteolus TH-1T) (from UniProt A0A077L7R5 1-189) (complex)

B1: HtSH (soluble NAD+-reducing [NiFe]-hydrogenase, HoxFUYH) (Hydrogenophilus thermoluteolus) (protein)
chain: MTTERQRTAPGLLAALHQARSRFGRPLDAQALAELSTAFSLPPGEIAATASFYHFFQTPPARYQIHFVDHVVDHHAGVAALCNHLCAAFAIQPGQRTADARLFVGWTACAGLSDQAPAALINGRPMPRLDAARIDALIEKIQAQIPMDQWPTEWFAVTNAIHRHGPLLTWLDTTPAEAVFEHPTAHDPDAILQAVTDAGLRGRGGAGFPTATKWRFCRENADPERFLICNADEGEPGTFKDRVLLTRYPEHLFAGMILAARAIGADKAILYLRYEYQYLLPQLEAARERIASAQATVPQAERVTLEIALGAGAYVCGEESALIESLEGKPGRPRVRPPYPVTQGYLGHPTVVNNVETLVAVAAIVGNGAAWWRALGTPDSSGPKLFCVSGDVAQPGLYEFPYGVALGDVVTAARPLGTRYAVQVSGPSGTLLPATPEQLARPLAFEALPCNGTVMVFDVRRDPVAIVHHFARFFAHESCGFCTPCRVGTQLIAKTFEKIAAGYATRFDLERLAPALEAMRLASNCGFGLSAGNPVRDLIAHFRQQLEAQLQPHDFIPAFSLDAELAATRRLTGRDDPHAHLAQFEQPEVTR
Km (purified protein [3]): 469 µM
Km (purified protein [4]): 1200 µM
